# Test results: patent publication US8569455B2, “Cloning, yeast expression, purification and biological activity of the extension region of the soybean 7S globulin alfa' subunit involved in HEP G2 cell cholesterol homeostasis” (Indena S.p.A., priority 2009, dated 2013)
# Marks after values point to notes of the source that are not given here.
# B1: 7S α′ subunit: purified full size α′ subunit of the soybean 7S globulin, around 71 kDa, positive control (protein)
# chain: VEEEEECEEGQIPRPRPQHPERERQQHGEKEEDEGEQPRPFPFPRPRQPHQEEEHEQKEEHEWHRKEEKHGGKGSEEEQDEREHPRPHQPHQKEEEKHEWQHKQEKHQGKESEEEEEDQDEDEEQDKESQESEGSESQREPRRHKNKNPFHFNSKRFQTLFKNQYGHVRVLQRFNKRSQQLQNLRDYRILEFNSKPNTLLLPHHADADYLIVILNGTAILTLVNNDDRDSYNLQSGDALRVPAGTTFYVVNPDNDENLRMIAGTTFYVVNPDNDENLRMITLAIPVNKPGRFESFFLSSTQAQQSYLQGFSKNILEASYDTKFEEINKVLFGREEGQQQGEERLQESVIVEISKKQIRELSKHAKSSSRKTISSEDKPFNLGSRDPIYSNKLGKLFEITQRNPQLRDLDVFLSVVDMNEGALFLPHFNSKAIVVLVINEGEANIELVGIKEQQQRQQQEEQPLEVRKYRAELSEQDIFVIPAGYPVMVNATSDLNFFAFGINAENNQRNFLAGSKDNVISQIPSQVQELAFPRSAKDIENLIKSQSESYFVDAQPQQKEEGNKGRKGPLSSILRAFY
# modifications: Glycine max
# notes: purified full size α′ subunit of the soybean 7S globulin, around 71 kDa, positive control
# B2: eα′: recombinant N-terminal extension region of the soybean 7S globulin α′ subunit, expressed in Pichia pastoris, about 20 kDa, SEQ ID NO: 1 (protein)
# chain: AVEEEEECEEGQIPRPRPQHPERERQQHGEKEEDEGEQPRPFPFPRPRQPHQEEEHEQKEEHEWHRKEEKHGGKGSEEEQDEREHPRPHQPHQKEEEKHEWQHKQEKHQGKESEEEEEDQDEDEEQDKESQESEGSESQREP
# modifications: Glycine max
# Legend:
# HepG2 cells [1] = assay: Uptake and degradation of 125I-LDL by HepG2 cells; assay type: cell-based, human; conditions: for Degradation % / Uptake %: % of LPDS control (100); for Degradation ng125I-LDL/mg cell protein / Uptake ng125I-LDL/mg cell protein: HepG2, 24 h preincubation in 5% LPDS, then 125I-LDL 7.5 mg/L for 5 h, mean ± SD
# Text: The established human hepatoma cell line (HepG2) was obtained from American Type Culture Collection (Rockville, Md.). Eagle's minimum essential medium (MEM), fetal calf serum, trypsin-EDTA (1×), penicillin (10^5 U/L), streptomycin (100 g/L), tricine buffer (1 mmol/L, pH 7.4) and non-essential amino acid solutions (100×) were from GIBCO (Madison, Wis.). Petri dishes were from COSTAR (Cambridge, Mass.). Filters were from Millipore (Bedford, Mass.). […] Sephadex G25 columns (PD10) were from Pharmacia Biotech (Uppsala, Sweden). LDH and MTT kit were from Sigma Diagnostics (Milano-Italy). All other chemicals were of analytical grade from Merck (Darmstadt, Germany). […] For experiments designed to evaluate the LDL receptor modulation, cells were seeded in 35 mm plastic dishes (3-5×10^5 cells) and used just before reaching confluence. In all cell culture experiments, the medium was changed every 2-3 days. In order to assess cell viability, culture media from cells exposed to eα′ at different concentrations were tested by methyltetrazolium salts (MTT) assay, essentially as described in ref. 9. Cell enzyme leakage was determined by measuring lactate dehydrogenase (LDH) activity, using a kinetic (LDH/LD) diagnostic kit (Sigma Diagnostics). […] Human lipoprotein deficient serum (LPDS) was prepared as previously described.
# Monolayers of cells were preincubated at 37° C. for 24 h in MEM supplemented with 5 g/100 g LPDS to up-regulate the LDL-receptors, in the presence/absence of eα′ at different concentrations listed in Table or 3.5 μmol/L α′ purified subunit or 1.0 μmol/L simvastatin.
# Differences in cell uptake and degradation of LDL after cell incubation with eα′ at different concentrations were determined by ANOVA followed by Dunnett's test. Values are expressed as means±SD; P values<0.05 were considered as statistically significant.
# LDL-R = conditions: Hep G2 cells exposed to the peptide at 100 μM; cited from earlier work
# HepG2 cells [2] = assay: Cell viability by methyltetrazolium salts (MTT) assay; assay type: cell-based, human; conditions: all concentrations tested; data not shown
# Text: (§1) The established human hepatoma cell line (HepG2) was obtained from American Type Culture Collection (Rockville, Md.). Eagle's minimum essential medium (MEM), fetal calf serum, trypsin-EDTA (1×), penicillin (10^5 U/L), streptomycin (100 g/L), tricine buffer (1 mmol/L, pH 7.4) and non-essential amino acid solutions (100×) were from GIBCO (Madison, Wis.). Petri dishes were from COSTAR (Cambridge, Mass.). Filters were from Millipore (Bedford, Mass.). The Protein Coomassie Plus Protein Assay kit was purchased from Pierce (Rockford, Ill., USA). ^125Iodine, carrier free, in 100 mmol/L NaOH, was from Perkin Elmer Life Sciences (Boston, Mass.). Sephadex G25 columns (PD10) were from Pharmacia Biotech (Uppsala, Sweden). LDH and MTT kit were from Sigma Diagnostics (Milano-Italy). All other chemicals were of analytical grade from Merck (Darmstadt, Germany). Cells were grown in monolayers in 90 mm-diameter Petri dishes, and maintained at 37° C. in a humidified atmosphere of 95% air, 5% CO2 in MEM supplemented with 10% fetal calf serum (FCS), non essential amino acid solution (1%, v/v), penicillin (10^5 U/L), streptomycin (0.1 g/L), tricine buffer (20 mmol/L, pH 7.4), NaHCO3 (24 mmol/L) and sodium pyruvate (0.11 g/L). […] Cell enzyme leakage was determined by measuring lactate dehydrogenase (LDH) activity, using a kinetic (LDH/LD) diagnostic kit (Sigma Diagnostics). […]
# HepG2 cells [3] = assay: Cell enzyme leakage, lactate dehydrogenase (LDH) activity; assay type: cell-based, human; conditions: all concentrations tested; data not shown
# Text: as §1
molecule,measurement,setting,value
"CCC(C)(C)C(=O)O[C@H]1C[C@@H](C)C=C2C=C[C@H](C)[C@H](CC[C@@H]3C[C@@H](O)CC(=O)O3)[C@H]21 [Simvastatin, simvastatin, reference compound]",Degradation %,HepG2 cells [1]; 1.0 μmol/L,179%
same,Uptake %,HepG2 cells [1]; 1.0 μmol/L,200%
same,Degradation ng125I-LDL/mg cell protein,HepG2 cells [1]; 1.0 μmol/L,143 ± 7.9** ng^125 I-LDL/mg cell protein
same,Uptake ng125I-LDL/mg cell protein,HepG2 cells [1]; 1.0 μmol/L,188 ± 10** ng^125 I-LDL/mg cell protein
FVVNATSN (Glycine max) [LDL-R transcription stimulating peptide deriving from the 7S globulin β chain],Increased LDL-R transcription,LDL-R,+148%
B1,Degradation %,HepG2 cells [1]; 3.5 μmol/L,160%
same,Uptake %,HepG2 cells [1]; 3.5 μmol/L,164%
same,Degradation ng125I-LDL/mg cell protein,HepG2 cells [1]; 3.5 μmol/L,128 ± 4.8* ng^125 I-LDL/mg cell protein
same,Uptake ng125I-LDL/mg cell protein,HepG2 cells [1]; 3.5 μmol/L,154 ± 9.1* ng^125 I-LDL/mg cell protein
B2,"Cellular toxicity, MTT assay",HepG2 cells [2],At no concentration of eα′ was there any evidence of cellular toxicity
same,Degradation %,HepG2 cells [1]; 0.5 μmol/L,125%
same,Uptake %,HepG2 cells [1]; 0.5 μmol/L,120%
same,Degradation ng125I-LDL/mg cell protein,HepG2 cells [1]; 0.5 μmol/L,100 ± 10* ng^125 I-LDL/mg cell protein
same,Uptake ng125I-LDL/mg cell protein,HepG2 cells [1]; 0.5 μmol/L,113 ± 7.1* ng^125 I-LDL/mg cell protein
same,Degradation %,HepG2 cells [1]; 1.0 μmol/L,148%
same,Uptake %,HepG2 cells [1]; 1.0 μmol/L,146%
same,Degradation ng125I-LDL/mg cell protein,HepG2 cells [1]; 1.0 μmol/L,118 ± 9.3* ng^125 I-LDL/mg cell protein
same,Uptake ng125I-LDL/mg cell protein,HepG2 cells [1]; 1.0 μmol/L,138 ± 9.2* ng^125 I-LDL/mg cell protein
same,Degradation %,HepG2 cells [1]; 2.0 μmol/L,196%
same,Uptake %,HepG2 cells [1]; 2.0 μmol/L,179%
same,Degradation ng125I-LDL/mg cell protein,HepG2 cells [1]; 2.0 μmol/L,157 ± 8.7** ng^125 I-LDL/mg cell protein
same,Uptake ng125I-LDL/mg cell protein,HepG2 cells [1]; 2.0 μmol/L,169 ± 6.7** ng^125 I-LDL/mg cell protein
same,"Cellular toxicity, LDH assay",HepG2 cells [3],At no concentration of eα′ was there any evidence of cellular toxicity
